Test results published in the supplement of paper PMC9732359.
± gives the uncertainty stated by the source.

Experiment: protein stability index of a GFP-peptide fusion (yeast GPS) (PSI 1-4); higher = more stable; sorted into four equal gates, so the index is relative within each strain
Method in brief: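 The protein stability index of a peptide was calculated by multiplying its read frequency in each gate by that gate's number and adding the products. The peptides were tiled 17-residue stretches of yeast proteins, fused downstream of GFP on a Cherry-expressing plasmid and carried in yeast as a pooled library. Mid-log cultures in leucine-free medium were sorted into four equal gates by GFP/Cherry ratio, and each gate's plasmids were PCR-amplified and Illumina-sequenced.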

Sequence	protein stability index (doa10∆)	protein stability index (pdr5∆)	protein stability index (san1∆)	protein stability index (ubr1∆)
PDTKISSAAILGLGIAF [RPN1]	2.28 ± 0.043	2.3 ± 0.058	2.49 ± 0.087	2.06 ± 0.051
FNGADIRNCATEAGFFA [RPT4]	3.32 ± 0.065	3.38 ± 0.079	3.3 ± 0.057	3.22 ± 0.048
RKIEFPSLRDRRERRLI [RPT3]	3.31 ± 0.052	3.34 ± 0.086	2.68 ± 0.066	3.32 ± 0.042
QSISNENDVKPISIEAP [SWI3]	2.55 ± 0.042	2.34 ± 0.044	2.42 ± 0.052	2.32 ± 0.037
ECKGCDNKIDIYQIHIP [RPB2]	3 ± 0.044	2.87 ± 0.048	3.02 ± 0.035	2.54 ± 0.032
YYAHSIPSSKIDDFTTR [SNU114]	2.96 ± 0.07	3.15 ± 0.078	3.08 ± 0.067	3.32 ± 0.077
LGFVLLRDYTTVPRIVQ [RPN2]	1.58 ± 0.046	1.66 ± 0.053	1.35 ± 0.076	1.42 ± 0.038
RGKDCTVVISQKKVPDK [SCL1]	2.59 ± 0.086	2.83 ± 0.076	2.83 ± 0.074	2.71 ± 0.051
AIVCYILFELYKIKGRN [SRP72]	2.01 ± 0.056	2.13 ± 0.059	2.69 ± 0.059	2.15 ± 0.054
DSMLFVFGFRANKMRQD [SMC4]	2.27 ± 0.072	2.24 ± 0.08	2.08 ± 0.12	2.7 ± 0.057
EQERKELEKYNELERNR [SMC3]	3.14 ± 0.14	3.05 ± 0.18	3.2 ± 0.11	3.24 ± 0.091
QALDAVRMRLAQLTHSL [MED8]	1.58 ± 0.04	1.58 ± 0.047	1.54 ± 0.065	1.5 ± 0.035
TRDEKDPKRLFEGNALI [RPS9A]	3.55 ± 0.2	3.6 ± 0.12	2.97 ± 0.18	3.71 ± 0.15
NEGAASSNPQSAYVKAF [SMC1]	2.62 ± 0.051	2.6 ± 0.053	2.5 ± 0.032	2.69 ± 0.027
SQTTTNDSKEESTTEAT [YLR335W/NUP2]	3.02 ± 0.19	2.83 ± 0.21	2.97 ± 0.21	3.27 ± 0.079
NNLSSMNLDFDIEEGPI [MCD1]	2.91 ± 0.046	3.15 ± 0.042	3.21 ± 0.037	3.19 ± 0.032
VSSSSRHHRKTEKEEDA [ISW2]	2.66 ± 0.064	2.81 ± 0.057	2.05 ± 0.058	2.86 ± 0.054
QIPHFNNKILEKCKEIN [BRR2]	1.28 ± 0.11	2.23 ± 0.12	1.88 ± 0.22	2.02 ± 0.14
GELEQAQAWINLGEYYA [RPN7]	3.58 ± 0.28	3.03 ± 0.098	3.33 ± 0.1	3.26 ± 0.057
GNESVKPQFENHVKQFY [MED11]	2.83 ± 0.19	2.57 ± 0.22		
